Reference: PMC4571279 (Nature Communications, 2015)

B1: Fab m336 (antigen-binding fragment of antibody m336, prepared by Lys-C digestion) (Fab, V domains shown)
VH: QVQLVQSGAEVKKPGSSVKVSCKASGGTFSSYAISWVRQAPGQGLEWMGGIIPIFGTASYAQKFQGRVTITADKSTSTAYMELSSLRSEDTAVYYCARVGYCSSTSCNRGAFDIWGQGTMVTVSS
VL: DIQLTQSPSSLSASVGDRVTITCRASQGIRNDLGWYQQKPGKAPKLLIYAASSLQSGVPSRFSGSGSGTDFTLTISSLQPEDFATYYCQQLNSYPLTFGGGTKVEIK
notes: also called m336 Fab
B2: Fab m336 (from the m336 Fab-expressing plasmid), wild type (Fab, V domains shown)
VH: QVQLVQSGAEVKKPGSSVKVSCKASGGTFSSYAISWVRQAPGQGLEWMGGIIPIFGTASYAQKFQGRVTITADKSTSTAYMELSSLRSEDTAVYYCARVGYCSSTSCNRGAFDIWGQGTMVTVSS
VL: DIQLTQSPSSLSASVGDRVTITCRASQGIRNDLGWYQQKPGKAPKLLIYAASSLQSGVPSRFSGSGSGTDFTLTISSLQPEDFATYYCQQLNSYPLTFGGGTKVEIK
notes: also called wild-type m336
B3: IgG1 m336 (antibody, V domains shown)
VH: QVQLVQSGAEVKKPGSSVKVSCKASGGTFSSYAISWVRQAPGQGLEWMGGIIPIFGTASYAQKFQGRVTITADKSTSTAYMELSSLRSEDTAVYYCARVGYCSSTSCNRGAFDIWGQGTMVTVSS
VL: DIQLTQSPSSLSASVGDRVTITCRASQGIRNDLGWYQQKPGKAPKLLIYAASSLQSGVPSRFSGSGSGTDFTLTISSLQPEDFATYYCQQLNSYPLTFGGGTKVEIK
notes: IgG1; also called wild-type m336; copies: 2 + 2

How the values were obtained:
[1] = target: T1, MERS-CoV Eng1 receptor-binding domain (RBD) (MERS-CoV Eng1, UniProt K9N5Q8); assay: crystal structure; conditions: both partners purified
T1 construct: source: GnTi-/- cells, purified (Ni-NTA, size exclusion chromatography in 1x PBS)
T1 sequence (K9N5Q8 367-601): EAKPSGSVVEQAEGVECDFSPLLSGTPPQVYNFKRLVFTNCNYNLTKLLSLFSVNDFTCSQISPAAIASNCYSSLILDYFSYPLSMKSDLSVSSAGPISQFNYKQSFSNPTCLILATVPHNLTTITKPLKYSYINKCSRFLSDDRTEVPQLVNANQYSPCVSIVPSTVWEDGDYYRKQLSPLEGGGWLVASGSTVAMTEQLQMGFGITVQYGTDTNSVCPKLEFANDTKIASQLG

[2] = target: T2, recombinant MERS-CoV S1 protein (MERS-CoV, isolate EMC/2012 (strain of …, UniProt K0BRG7)); assay: ELISA; conditions: both partners purified
T2 construct: source: bought: Sino Biological Inc

| Binder | binding result [1] | binding result [2] |
| --- | --- | --- |
| B1 | binds | – |
| B2 | – | binds |
| B3 | – | binds |
